Test [1] addresses T1, FLAG-LGR6 (human LGR6, predicted mature form aa25-967, N-terminal FLAG tag), expressed on HEK293 cells (human, UniProt Q9HBX8 26-967).
T1 sequence: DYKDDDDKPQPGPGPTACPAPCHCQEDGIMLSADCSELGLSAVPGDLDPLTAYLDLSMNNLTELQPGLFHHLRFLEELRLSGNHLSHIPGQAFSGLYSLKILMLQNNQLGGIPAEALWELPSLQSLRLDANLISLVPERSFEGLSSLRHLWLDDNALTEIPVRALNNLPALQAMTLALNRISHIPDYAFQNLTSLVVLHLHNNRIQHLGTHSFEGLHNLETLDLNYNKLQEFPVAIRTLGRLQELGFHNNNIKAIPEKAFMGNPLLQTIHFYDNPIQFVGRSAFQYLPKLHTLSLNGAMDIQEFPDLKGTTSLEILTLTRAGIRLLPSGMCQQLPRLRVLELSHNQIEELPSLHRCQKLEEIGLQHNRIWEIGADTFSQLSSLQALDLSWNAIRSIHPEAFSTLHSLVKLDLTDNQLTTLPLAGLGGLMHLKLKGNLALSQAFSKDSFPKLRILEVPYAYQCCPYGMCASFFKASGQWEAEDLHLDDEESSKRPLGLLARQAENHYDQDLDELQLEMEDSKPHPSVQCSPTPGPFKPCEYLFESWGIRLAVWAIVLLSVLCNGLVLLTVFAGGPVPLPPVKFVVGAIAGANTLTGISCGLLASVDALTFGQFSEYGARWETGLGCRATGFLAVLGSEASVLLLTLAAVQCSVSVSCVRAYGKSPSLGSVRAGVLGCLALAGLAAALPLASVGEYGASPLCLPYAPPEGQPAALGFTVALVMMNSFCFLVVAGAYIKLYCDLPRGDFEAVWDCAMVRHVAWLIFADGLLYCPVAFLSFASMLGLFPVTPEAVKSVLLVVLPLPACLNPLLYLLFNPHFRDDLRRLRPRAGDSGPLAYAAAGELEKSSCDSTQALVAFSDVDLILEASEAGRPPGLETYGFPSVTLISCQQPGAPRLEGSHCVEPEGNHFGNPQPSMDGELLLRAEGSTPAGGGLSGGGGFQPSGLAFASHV
Nature of the test: cell-based or functional assay.

Test [2] addresses T1, FLAG-LGR6 (human LGR6, predicted mature …). Nature of the test: whole-cell fluorescence competition binding, displacement of mRSPO1-Fc (~5 nM) from HEK293 cells expressing FLAG-LGR6. The procedure: A fluorescence-based whole-cell competition binding assay was developed to determine whether purified, recombinant RSP01-4 could compete with mRSPO1-Fc for binding to LGR4-6. HEK293 cells stably expressing Myc-LGR4, Myc-LGR5, or FLAG-LGR6 were seeded into poly-D-lysine-coated 96-well black/clear bottom plates (Becton Dickinson) at ˜60,000 cells/well. After overnight culturing, the plates were chilled on ice for 5 min, media were removed from each well, and the cells were washed twice with cold PBS. The recombinant RSPOs under investigation were diluted in 3-fold serial dilutions in cold OPTI-MEM®+0.5% BSA and added onto the cells at 50 μl/well, followed immediately by the addition of equal volume of mRSPO1-Fc diluted by 1:100 in the same buffer. The cells were the incubated for 3.5 hrs at 4° C. with gentle agitation, followed by three quick washes with cold PBS. The cells were then fixed in 4% paraformaldehyde/PBS for 15 min at room temperature and washed 3× with PBS. The cells were further incubated with Alexa Fluor® 647-labeled goat anti-mouse IgG (H+L) (Invitrogen, diluted by 1:200) in OPTI-MEM®+0.5% BSA for 1 hr at room temperature. The cells were washed thrice with PBS and fluorescence intensity was measured using a Tecan M1000 plate reader with excitation at 630 nm and emission at 670 nm. All experiments were performed at least twice with quadruplicate replicates in each experiment. HEK293 cells stably expressing Myc-LGR4 (shown in FIG. 4B), Myc-LGR5 (shown in FIG. 4C), or FLAG-LGR6 (shown in FIG. 4D) were incubated with mRSPO1Fc at ˜5 nM plus serial dilutions of purified recombinant RSPO1-4 for 3-4 hrs at 4° C. Binding of mRSPO1-Fc was detected with Alexa Fluor® 647-labeled anti-mouse IgG. Maximum specific binding is defined by the difference between the data of with and without mRSPO1-Fc which is approximately 50% of total binding in general. All error bars are S.E.M. (n=4). […] As shown in FIGS. 4B-D, RSPO1-4 were able to completely displace the binding of mRSPO1-Fc to LGR4-6 with IC50's in the nM range, the one exception was the μM IC50's for RSPO3 (SEQ ID NO:46; SEQ ID NO:47) and RSPO4 (SEQ ID NO:48; SEQ ID NO:49) binding to LGR4.

B1: recombinant human RSPO2 (ligand, UniProt Q6UXX9 22-243, looked up)
chain: QGNRWRRSKRASYVSNPICKGCLSCSKDNGCSRCQQKLFFFLRREGMRQYGECLHSCPSGYYGHRAPDMNRCARCRIENCDSCFSKDFCTKCKVGFYLHRGRCFDECPDGFAPLEETMECVEGCEVGHWSEWGTCSRNNRTCGFKWGLETRTRQIVKKPVKDTILCPTIAESRRCKMTMRHCPGGKRTPKAKEKRNKKKKRKLIERAQEQHSVFLATDRANQ
notes: Bought from R&D Systems; also called R-spondin 2
On to B1, for which the “fold change of EC50 against vector-transfected cells, β-catenin reporter” value in test [1] was 20 fold. Besides, in test [2], the IC50 was 0.5 nM.

B2: recombinant human RSPO3 (ligand)
chain: QNASRGRRQRRMHPNVSQGCQGGCATCSDYNGCLSCKPRLFFALERIGMKQIGVCLSSCPSGYYGTRYPDINKCTKCKADCDTCFNKNFCTKCKSGFYLHLGKCLDNCPEGLEANNHTMECVSIVHCEVSEWNPWSPCTKKGKTCGFKRGTETRVREIIQHPSAKGNLCPPTNETRKCTVQRKKCQKGERGKKGRERKRKKPNKGESKEAIPDSKSLESSKEIPEQRENKQQQKKRKVQDKQKSVSVSTVH
notes: Bought from R&D Systems; also called R-spondin 3
As for B2, the IC50 in test [2] is 1.3 nM.

B3: recombinant human RSPO1 (ligand, UniProt Q2MKA7 21-263, looked up)
chain: SRGIKGKRQRRISAEGSQACAKGCELCSEVNGCLKCSPKLFILLERNDIRQVGVCLPSCPPGYFDARNPDMNKCIKCKIEHCEACFSHNFCTKCKEGLYLHKGRCYPACPEGSSAANGTMECSSPAQCEMSEWSPWGPCSKKQQLCGFRRGSEERTRRVLHAPVGDHAACSDTKETRRCTVRRVPCPEGQKRRKGGQGRRENANRNLARKESKEAGAGSRRRKGQQQQQQQGTVGPLTSAGPA
notes: Bought from R&D Systems; also called R-spondin 1
As to B3, the “fold change of EC50 against vector-transfected cells, β-catenin reporter” value in test [1] is 20 fold. Also, in test [2], the IC50 is 3.3 nM.

B4: recombinant human RSPO4 (ligand)
chain: LNRRKKQVGTGLGGNCTGCIICSEENGCSTCQQRLFLFIRREGIRQYGKCLHDCPPGYFGIRGQEVNRCKKCGATCESCFSQDFCIRCKRQFYLYKGKCLPTCPPGTLAHQNTRECQGECELGPWGGWSPCTHNGKTCGSAWGLESRVREAGRAGHEEAATCQVLSESRKCPIQRPCPGERSPGQKKGRKDRRPRKDRKLDRRLDVRPRQPGLQP
notes: Bought from R&D Systems; also called R-spondin 4
B4: the IC50 in test [2] is 7.7 nM.

As a reminder, the IC50 is the concentration needed to halve the response being measured.

These data come from US20130143227A1 (University of Texas, published 2013).
